Data taken from US20250215091A1, “Anti-GAL3 Antibodies and Compositions” (Les Laboratoires Servier, priority 2022, published 2025).

Tests used:
[1] = system: murine model of HOCI-induced fibrosis; test: HOCI-induced murine fibrosis model: skin and lung collagen (Picrosirius red); format: in vivo, mice; settings: first experiment; for lung collagen levels: day 42, FIG. 8A; for skin collagen levels: day 42, vs HOCI group, FIG. 8B
Protocol: (§1) In a first experiment, control mice (n=12) received a daily intradermal injection of 300 μL of sterile phosphate buffer saline (PBS) for 5 consecutive days per week, for a duration of 42 days. HOCI alone and HOCI with antibody (HOCI-antibody) treated mice (n=12 per group) received a daily intradermal injection of 300 μL of HOCI for 5 consecutive days per week, for a duration of 42 days. Antibody-treated mice also received a subcutaneous injection of 20 mg/kg antibody, starting at day minus one and every 5 days between day 5 and day 40. Each antibody was solubilized in sterile, endotoxin-free PBS before injection. In a second experiment, the same protocol was applied, except that duration of the study was 63 days and antibodies were given every 7 days starting at day minus 1 until day 62.
(§2) Mice that received daily injection of HOCI were also treated by intratracheal instillation of 0.5 mg/kg of TD139 compound (HOCI-TD139), a small molecule Gal3 inhibitor. In a first experiment, the administrations started from day 21 and the compound was given every 3 days until day 39. In a second experiment, the administrations started from day 20 and the compound was given every 3 days until day 62. TD139 was initially dissolved in 100% DMSO then diluted 50-fold in endotoxin-free PBS before administration.
At the day of study termination of the first experiment (day 42), skin and lung samples were taken, formalin-fixed and processed to individual paraffin wax blocks. Sections of skin and lung were cut from the blocks and, after rehydration, stained with Picrosirius Red coloration according to the manufacturer's protocol. Subsequently, each slide was examined and remotely analyzed employing the web-based Image J software

[2] = system: murine model of bleomycin-induced fibrosis; test: Bleomycin-induced murine lung fibrosis model: body weight and body weight metrics; format: in vivo, mice; settings: for reduction of median Time to baseline (TTB): median TTB 20 days for untreated bleomycin group; for reduction of median Time to baseline (TTB) / reduction of median Time to weight growth (TWG): FIG. 13; for reduction of median Time to weight growth (TWG): median TWG 10 days for untreated bleomycin group; for mean percent weight increase on day 21 compared to day minus 1: untreated bleomycin group +1.9%, control mice 6.4%
Protocol: (§3) Control bleomycin mice named ‘Bleo’ received an administration of 1.65 mg/kg bleomycin by the oropharyngeal route on Day 1. […] Antibody-treated mice also received an administration of 1.65 mg/kg bleomycin by the oropharyngeal route on Day 1 and a subcutaneous injection of 20 mg/kg antibody, starting on day minus one and on days 4, 8, 12, 16 and 20. Each antibody was solubilized in sterile, endotoxin-free PBS before injection. Mice that received bleomycin were also treated by oropharyngeal administration of 0.5 mg/kg of TD139 compound (Bleo-TD139), a small molecule Gal3 inhibitor, starting on day 12 and every 2 days until day 20. TD139 was initially dissolved in 100% DMSO.
Mice were weighed daily. Their growth curves are represented on FIG. 12. Control mice had normal growth with a mean percent increase of 6.4% of their initial body weight measured on day minus 1.
Body weight metrics were assessed by using two parameters called Time to weight growth (TWG) and Time to baseline (TTB), shown on FIG. 13. Time to weight growth corresponds to the point of inflection when mice show an ascending growth curve and start to regain weight within the course of the experiment. Time to baseline corresponds to the number of days required for mice to recover their initial body weight (day minus 1). The median TWG was 10 days for the untreated bleomycin group. […] TD139 compound had no efficacy on this parameter (p-value 0.53).

plasma Gal3 = test: HOCI-induced murine fibrosis model: plasma Gal3 (ELISA); format: in vivo, mice; settings: first experiment, day 42; FIG. 10
Protocol: as §1, §2
In the first experiment, the plasma levels of Gal3 were measured at day minus 1 (before antibody administration) and at termination day (day 42) using a mouse Galectin-3 DuoSet ELISA kit (R&D Systems, DY1197) according to the manufacturer's instructions. Plasma samples were diluted 1:200 in order to fit with the dynamic range of the assay.

[3] = system: genes differentially regulated between HOCI group and control group in whole blood cells; test: HOCI-induced murine fibrosis model: whole blood RNA sequencing; format: in vivo, mice; settings: of 510 genes differentially regulated HOCI vs control; day 42, whole blood
Protocol: as §1, §2
In the first experiment, global gene expression was examined at day 42 in whole blood cells by RNA sequencing.
Whole blood was collected in RNA protect tubes (Qiagen) and were processed for RNA extraction using the RNeasy Protect Animal blood kit with the optional on-column DNAse I digestion. Total RNA samples were quantified on Nanodrop 2000 (ThermoFisher Scientific™) and analyzed on Bioanalyzer (Agilent) using RNA 6000 Nano chips to determine RNA quality (RIN). Total RNA matching the QC criteria were included in the study. Purified RNA samples were used as input for the TruSeq Strand-specific RNA-seq (poly A selection and globin depletion) according to manufacturer's protocol (Illumina). […]
Raw reads were processed using the in-house RNAExp Expression pipeline 2.1 and the quality was assessed using FastQC tools. Then, reads were trimmed for adaptors using Cutadapt and trimmed reads were aligned to mouse mm39 reference genome using the STAR aligner. Aligned data were evaluated for quality using Samtools and Picard tools. Then, aligned reads per gene were quantified using FeatureCount. […] Read count were normalized by the variance stabilizing transformation vst function from DESeq2 R package.
55,416 genes were detected in the data. […] Genes differentially expressed between groups were determined using a linear model (ImFit function from limma R package) on vst transformation gene expression dataset. […]

plasma IL-5 = test: HOCI-induced murine fibrosis model: plasma IL-5 (MSD); format: in vivo, mice; settings: first experiment, day 42; vs HOCI group; FIG. 9
Protocol: as §1, §2
(§4) In the first experiment, a mixed effect model with repeated measurements was performed on Control group, HOCI treated group, HOCI-antibody- and HOCI-TD139-treated groups. The impact of HOCI administration on plasma IL-6 and IL-5 levels was evaluated compared to the control group. The impact of antibody and TD139 treatments was compared to the HOCI group (FIG. 9). IL-6 and IL-5 were quantified by using the MSD technology from Mesoscale.

[4] = system: murine model of HOCI-induced fibrosis; test: HOCI-induced murine fibrosis model: skin thickness; format: in vivo, mice; settings: first experiment; for HOCI-induced increase in skin thickness: 42 days, antibody 20 mg/kg s.c., TD139 0.5 mg/kg intratracheal, vs HOCI group, FIG. 7A
Protocol: as §1, §2
The evolution of skin thickness was monitored by using an external caliper, every seven days until sacrifice.

plasma IL-6 = test: HOCI-induced murine fibrosis model: plasma IL-6 (MSD); format: in vivo, mice; settings: first experiment, day 42; vs HOCI group; FIG. 9
Protocol: as §1, §2, §4

[5] = system: murine model of bleomycin-induced fibrosis; test: Bleomycin-induced murine lung fibrosis model: Modified Ashcroft fibrosis score; format: in vivo, mice
Protocol: as §3
Mice were submitted for terminal euthanasia on day 21. The lungs were collected for histopathological examination and gravity inflation-fixed with 10% neutral buffered formalin (NBF) before being immersion fixed in NBF.
Sections were taken and then placed on three slides as indicated by the code numbers on FIG. 14.
Three longitudinal sections parallel to and bisecting the main stem bronchus were trimmed from the left lung and right caudal lung lobes and mounted in cassettes 01 and 02, respectively. The right cranial, middle and accessory lung lobes were sectioned longitudinally and mounted in cassette 03. All sections were stained with picrosirius red and scored in a blinded manner by a certified veterinary pathologist using the Modified Ashcroft fibrosis score (0-8), where “0” corresponds to “normality (no fibrosis) and “8” corresponds to the highest possible fibrosis score, as described by Hübner et al. (2008) but based on assessment across the whole section of lung.

rat model of ARDS [6] = test: Rat ARDS model (LPS challenge): neutrophils counts in BALF; format: in vivo; settings: antibodies 14 mg/kg x3 prior to LPS; dexamethasone 10 mg/kg oral; vs LPS group; FIG. 16
Protocol: (§5) Positive control rats received 3 doses of sterile phosphate buffer at day minus 11, minus 6 and minus 1 prior LPS challenge (0.25 mg/kg by subcutaneous route at day 1). Negative control rats received one oral dose of Dexamethasone at 10 mg/kg (dissolved in 0.5% carboxymethyl cellulose in deionized water) 2 hours prior LPS challenge (0.25 mg/kg by subcutaneous route at day 1). LPS (lipopolysaccharide) causes an acute inflammatory response, whereas dexamethasone has anti-inflammatory effects thus being the reference treatment in this model.
(§6) Antibody-treated rats received 3 doses of antibodies (14 mg/kg) at day minus 11, minus 6 and minus 1 prior to LPS challenge (0.25 mg/kg by subcutaneous route at day 1). Each antibody was solubilized in sterile PBS before injection.
(§7) Control rats of the experiment received 3 doses of sterile phosphate buffer at day minus 11, minus 6 and minus 1 without LPS challenge at day 1.
(§8) The impact of anti-Gal3 antibody treatment in LPS challenged rats were evaluated by quantification of neutrophils in Bronchoalveolar Lavage Fluid and compared to the positive control group (LPS challenge with PBS treatment) (FIG. 16). […] Neutrophils numeration levels were decreased after treatment with anti-inflammatory dexamethasone.

plasma TNF alpha = test: Rat ARDS model (LPS challenge): plasma TNF alpha (MSD); format: in vivo; settings: 4 h following LPS challenge; vs LPS group; FIG. 18
Protocol: as §5, §6, §7
For all rats, plasma sampling was performed 4 h following LPS challenge.
The impact of anti-Gal3 antibody treatment in LPS challenged rats were evaluated on plasma cytokine levels, namely TNF alpha and KC-GRO cytokines, and compared to the positive control group (LPS challenge with PBS treatment) (respectively FIG. 18A and FIG. 18B). TNF alpha and KC-GRO were quantified by using the MSD technology from Mesoscale.

rat model of ARDS [7] = test: Rat ARDS model (LPS challenge): total BALF protein (BCA assay); format: in vivo; settings: antibodies 14 mg/kg x3 prior to LPS; dexamethasone 10 mg/kg oral; vs LPS group; FIG. 17
Protocol: as §5, §6, §7
as §8, with “proteins (by BCA assay)” for “neutrophils”, “BALF” for “Bronchoalveolar Lavage Fluid”, “17). The presence of protein in BALF reflects the damage to the air-blood barrier.” for “16).”, “Total BALF protein” for “Neutrophils”

Molecule: OC[C@H]1O[C@@H](S[C@@H]2O[C@H](CO)[C@H](O)[C@H](n3cc(-c4cccc(F)c4)nn3)[C@H]2O)[C@H](O)[C@@H](n2cc(-c3cccc(F)c3)nn2)[C@H]1O [TD139, reference compound]
- lung collagen levels [1]: restored lung collagen levels to those of control mice
- skin collagen levels [1]: significantly reduced
- reduction of median Time to baseline (TTB) [2]: no efficacy
- reduction of median Time to weight growth (TWG) [2]: no efficacy
- mean percent weight increase on day 21 compared to day minus 1 [2]: 2.9%
- plasma Gal3 levels (plasma Gal3): restored the plasma Gal3 levels to values similar to those of the control group
- number of HOCI-dysregulated genes counteracted by treatment [3]: 7 genes
- percentage of HOCI-dysregulated genes counteracted by treatment [3]: 1.37%
- plasma IL-5 levels (plasma IL-5): decreased significantly
- HOCI-induced increase in skin thickness [4]: lower decrease in skin thickness than with either antibody, reaching statistical significance only at days 28 and 42
- plasma IL-6 levels (plasma IL-6): no activity
- mice having a lung fibrosis score of 2 and 3 ([5]; day 21): 50.6%
- mice having a lung fibrosis score of 4 and 5 ([5]; day 21, 49.3% for untreated bleomycin group): 49.4%
- attenuation of lung fibrosis (overall) ([5]; day 21, FIG. 15): did not show any sign of anti-fibrotic efficacy

B1: D11: anti-Gal3 monoclonal antibody, IgG1 format; VH SEQ ID NO 40, VL SEQ ID NO 41 (antibody, V domains shown)
VH: EVQLVESGGSLVKPGGSLRLSCAASGFTFSNYNMNWVRQAPGKGLEWISSIYGSSRYIYYADFVKGRFTISRDNAKNSLYLQMNSLRAEDTAVYYCVRSSYGGMDVWGRGTLVTVSS
VL: QSVLTQPASVSGSPGQSITISCAGTSSDVGGSYNVAWYQQHPGKAPKLMIYYDSYRPSGVSNRFSGSKSGNTASLTISGLQAEDEADYYCSSYTGYSTRVFGGGTKLEIK
modifications: IgG1 constant region
- lung collagen levels [1]: restored lung collagen levels to those of control mice
- skin collagen levels [1]: significantly reduced
- reduction of median Time to baseline (TTB) [2]: 2.7 days
- reduction of median Time to weight growth (TWG) [2]: 1.3 days
- mean percent weight increase on day 21 compared to day minus 1 [2]: 4.4%
- neutrophils counts in BALF (rat model of ARDS [6]): also decreased
- TNF alpha plasma levels (plasma TNF alpha): also decreased, displaying an intermediary profile
- plasma Gal3 levels (plasma Gal3): restored the plasma Gal3 levels to values similar to those of the control group
- plasma IL-5 levels (plasma IL-5): decreased significantly
- HOCI-induced increase in skin thickness [4]: significantly reduced
- day from which reduction of skin thickness was significant ([4]; sustained effect until day 42): 21 days
- plasma IL-6 levels (plasma IL-6): significantly decreased the plasma IL-6 levels to values similar to those of control mice
- total BALF protein (rat model of ARDS [7]): also decreased
- frequency of animals with fibrosis score of 2 ([5]; day 21, 7.4% in untreated bleomycin group): 17.8%
- frequency of animals with fibrosis score of 3 ([5]; day 21, 43.2% for bleo group): 61.1%
- frequency of animals with fibrosis score of 4 ([5]; day 21, 44.4% in bleo group): 20%
